The supplement of paper PMC9233669
Variants at the floor of the assay were thinned out.

Experiments:
biotinyl-Phe-oxazolone = assay: self-aminoacylation, catalytic enhancement (BFO) (fold over background); higher = more active; k-Seq, kA / k0A0; sequences stand for … in GGGAAUGGAUCCACAUCUACGAAUUC…UUCACUGCAGACUUGACGAAGCUG
Summary of the method: (§1)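 Mutagenized RNA pools with a 21-nt variable region (0.43 μM) reacted with each biotinyl-aminoacyl-oxazolone at 2–1250 μM. Reactions ran in 50 μL HEPES/NaCl/KCl/MgCl2/CaCl2 buffer with 5% acetonitrile, pH 6.9–7.0, for 90 minutes at room temperature. Streptavidin-captured RNA was quantified by triplicate qPCR and Illumina sequencing, and per-sequence fraction reacted was fit to a pseudo-first-order model with 1000 bootstraps. Catalytic enhancement is median kA divided by the uncatalyzed rate, the low-activity peak of a bimodal Gaussian fit.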

biotinyl-Ile-oxazolone = assay: self-aminoacylation, catalytic enhancement (BIO) (fold over background); higher = more active; k-Seq, kA / k0A0; sequences stand for … in GGGAAUGGAUCCACAUCUACGAAUUC…UUCACUGCAGACUUGACGAAGCUG
Summary of the method: as §1

biotinyl-Met-oxazolone = assay: self-aminoacylation, catalytic enhancement (BMO) (fold over background); higher = more active; k-Seq, kA / k0A0; sequences stand for … in GGGAAUGGAUCCACAUCUACGAAUUC…UUCACUGCAGACUUGACGAAGCUG
Summary of the method: as §1

biotinyl-Val-oxazolone = assay: self-aminoacylation, catalytic enhancement (BVO) (fold over background); higher = more active; k-Seq, kA / k0A0; sequences stand for … in GGGAAUGGAUCCACAUCUACGAAUUC…UUCACUGCAGACUUGACGAAGCUG
Summary of the method: as §1

biotinyl-Leu-oxazolone = assay: self-aminoacylation, catalytic enhancement (BLO) (fold over background); higher = more active; k-Seq, kA / k0A0; sequences stand for … in GGGAAUGGAUCCACAUCUACGAAUUC…UUCACUGCAGACUUGACGAAGCUG
Summary of the method: as §1

biotinyl-Trp-oxazolone = assay: self-aminoacylation, catalytic enhancement (BWO) (fold over background); higher = more active; k-Seq, kA / k0A0; sequences stand for … in GGGAAUGGAUCCACAUCUACGAAUUC…UUCACUGCAGACUUGACGAAGCUG
Summary of the method: as §1

Sequence | self-aminoacylation (biotinyl-Phe-oxazolone) | self-aminoacylation (biotinyl-Ile-oxazolone) | self-aminoacylation (biotinyl-Met-oxazolone) | self-aminoacylation (biotinyl-Val-oxazolone) | self-aminoacylation (biotinyl-Leu-oxazolone) | self-aminoacylation (biotinyl-Trp-oxazolone)
AAGUUGGCUAAUAAUCGCAAG [Fam3.1 aminoacylation ribozyme variant] | 2.15 | 1.72 | 1.29 | 1.67 | 1.34 | 2.04
CCACACUUCAGGCAAUCGGUC [Fam1B.1 aminoacylation ribozyme variant] | 1.47 | 1.14 | 1.14 | 1.27 | 1.11 | 1.28
CGACUUCAAACAAGCGGUCUG [Fam1A.1 aminoacylation ribozyme variant] | 1.23 | 1.39 | 1.6 | 1.37 | 1.11 | 1.45
AUUCACCUAGGGCAUCUGGUG [Fam2.2 aminoacylation ribozyme variant] | 13 | 2.11 | 2.63 | 2.33 | 3.23 | 2.64
AUUACCAUGGUCAUCGAGAGA [Fam2.1 aminoacylation ribozyme variant] | 0.497 | 0.797 | 0.859 | 0.864 | 0.937 | 1.38
AAGUGUGCUAAUGGUCGCAAG [Fam3.1 aminoacylation ribozyme variant] | 2.15 | 0.864 | 0.926 | 1.06 | 0.792 | 1.21
CCAAACUUCAAGCAAUCGUUC [Fam1B.1 aminoacylation ribozyme variant] | 0.813 | 0.743 | 0.66 | 0.93 | 0.621 | 0.803
ACUCACCUAGGUCGUCGGGUG [Fam2.2 aminoacylation ribozyme variant] | 6.16 | 2.58 | 2.56 | 2.4 | 2.25 | 3.42
CCACACUUGAAGCAAUCGAUC [Fam1B.1 aminoacylation ribozyme variant] | 0.662 | 0.482 | 0.436 | 0.612 | 0.407 | 0.348
AUUACACUGGUCAUCGAGUCA [Fam2.1 aminoacylation ribozyme variant] | 0.583 | 0.877 | 0.865 | 0.83 | 0.857 | 0.497
CUACUUCAAACAAUAGGACUG [Fam1A.1 aminoacylation ribozyme variant] | 0.544 | 0.633 | 0.6 | 0.625 | 0.585 | 0.515
AUUACCCUGGUCAUCGGGAGA [Fam2.1 aminoacylation ribozyme variant] | 2.87 | 1.71 | 2.97 | 2.41 | 4.4 | 5.01
CUACUUCGAACAAUCGGGCUG [Fam1A.1 aminoacylation ribozyme variant] | 0.645 | 1.3 | 1.02 | 1.54 | 1.24 | 1.57
AAGUUGGCUAAUAUUCGCAAG [Fam3.1 aminoacylation ribozyme variant] | 2.07 | 2.32 | 1.85 | 2.09 | 2.11 | 3.02
CAGUUUGCUAGUAGUCGCAAG [Fam3.1 aminoacylation ribozyme variant] | 1.19 | 0.938 | 0.827 | 1.04 | 1.25 | 1.37
CUACUUGAAACAAACGGUCUG [Fam1A.1 aminoacylation ribozyme variant] | 0.858 | 1.02 | 1.05 | 0.985 | 0.826 | 1.03
AAGUUUGCUGAUAGUCGUAAG [Fam3.1 aminoacylation ribozyme variant] | 0.944 | 0.854 | 0.951 | 0.93 | 0.674 | 0.823
AUACACCUAGGACAUCGGGUG [Fam2.2 aminoacylation ribozyme variant] | 14.1 | 2.73 | 2.98 | 2.79 | 2.82 | 5.32
CUAGCUCAAACAAUCGGUCUG [Fam1A.1 aminoacylation ribozyme variant] | 4.58 | 0.817 | 0.776 | 0.914 | 0.742 | 3.09
ACACACUUCAAGCAAUCGGUG [Fam1B.1 aminoacylation ribozyme variant] | 56.7 | 5.89 | 7.83 | 5.84 | 10.5 | 9.81
AUUACCCUGGUCAUCAACUGA [Fam2.1 aminoacylation ribozyme variant] | 0.556 | 0.789 | 0.667 | 1.13 | 0.851 | 0.571
AUUUAGCUAGGUCAUCGGGUG [Fam2.2 aminoacylation ribozyme variant] | 50.1 | 3.83 | 4.72 | 4 | 5.39 | 6.01
AAGCUAGCUAAUAGUCGCAAG [Fam3.1 aminoacylation ribozyme variant] | 4.5 | 2.2 | 1.36 | 1.62 | 2.26 | 2.47
GUUCACCUAGGUCAUCCGGUG [Fam2.2 aminoacylation ribozyme variant] | 45.4 | 5.36 | 6.69 | 5.33 | 6.89 | 7.53
CCACACUUCGGGCAAUCGGUC [Fam1B.1 aminoacylation ribozyme variant] | 9.3 | 2.1 | 2.73 | 3.09 | 2.48 | 2.23
CUACUUGAAACGAUCGGUCUG [Fam1A.1 aminoacylation ribozyme variant] | 0.916 | 0.968 | 1.11 | 1.05 | 1.24 | 0.726

Sequence | self-aminoacylation (biotinyl-Phe-oxazolone) | self-aminoacylation (biotinyl-Ile-oxazolone) | self-aminoacylation (biotinyl-Met-oxazolone) | self-aminoacylation (biotinyl-Val-oxazolone) | self-aminoacylation (biotinyl-Leu-oxazolone) | self-aminoacylation (biotinyl-Trp-oxazolone)
GUUCACCUAGGUCAUGGGGUG [Fam2.2 aminoacylation ribozyme variant] | 10.3 | 2.64 | 3.63 | 3.01 | 4.4 | 4.06
GGACUUCAAACAAUCGGUCUG [Fam1A.1 aminoacylation ribozyme variant] | 122 | 2.34 | 2 | 1.88 | 2.75 | 47.1
AUUCACCUAGGUCAUCUAGUG [Fam2.2 aminoacylation ribozyme variant] | 18.7 | 2.92 | 4.77 | 2.78 | 5.99 | 4.12
CUACUUCGAACAAACGGUCUG [Fam1A.1 aminoacylation ribozyme variant] | 0.51 | 0.709 | 0.664 | 0.805 | 0.535 | 0.619
CCACACUACAAGCAAUCUGUC [Fam1B.1 aminoacylation ribozyme variant] | 0.747 | 0.496 | 0.271 | 0.566 | 0.49 | 0.353
CUACUUCAAACAAUAGGGCUG [Fam1A.1 aminoacylation ribozyme variant] | 0.8 | 0.844 | 0.557 | 0.631 | 0.523 | 0.391
CUGCUUCAAACAAUCGCUCUG [Fam1A.1 aminoacylation ribozyme variant] | 4.43 | 0.876 | 0.937 | 0.888 | 0.984 | 3.14
AUUACCCUAGUCUUCGAGUGA [Fam2.1 aminoacylation ribozyme variant] | 24.6 | 3.09 | 5.54 | 3.22 | 5 | 7.87
CCACACUUUAAGCAAUGGGUC [Fam1B.1 aminoacylation ribozyme variant] | 0.774 | 0.696 | 0.686 | 0.613 | 0.618 | 0.612
CCACAGUUCAAGCCAUCGGUC [Fam1B.1 aminoacylation ribozyme variant] | 1.14 | 1.87 | 2.33 | 2.17 | 2.53 | 1.3
AUUCACCUGGGUCAUCGGGUU [Fam2.2 aminoacylation ribozyme variant] | 17.4 | 4.39 | 6.89 | 5.13 | 9.06 | 7.09
AUUUCCCUGGUCAUCGAGUGU [Fam2.1 aminoacylation ribozyme variant] | 26.8 | 6.35 | 14.9 | 7.71 | 14.6 | 12.4
AUUACCUUGCUCAUCGAGUGA [Fam2.1 aminoacylation ribozyme variant] | 4.55 | 1.68 | 2.29 | 1.82 | 2.31 | 3.02
AUUCACCAAGGUGAUCGGGUG [Fam2.2 aminoacylation ribozyme variant] | 17.6 | 2.63 | 3.28 | 2.98 | 4.13 | 4.15
CCACAUUUCAAGCAAUCAGUC [Fam1B.1 aminoacylation ribozyme variant] | 1.71 | 1 | 0.755 | 1.1 | 0.906 | 0.884
CUGCUUCCAACAAUCGGUCUG [Fam1A.1 aminoacylation ribozyme variant] | 1.03 | 0.634 | 0.737 | 0.691 | 0.73 | 1.02
CUACUACAAACAAUCCGUCUG [Fam1A.1 aminoacylation ribozyme variant] | 0.545 | 0.717 | 0.728 | 0.832 | 0.68 | 0.855
AUUACCCUUGUCAUCGAGUCA [Fam2.1 aminoacylation ribozyme variant] | 0.6 | 0.895 | 0.756 | 0.841 | 0.708 | 0.591
AUUACCCUGGUAAUCGAGUGG [Fam2.1 aminoacylation ribozyme variant] | 2.83 | 1.38 | 2.85 | 1.31 | 2.79 | 2.9
AUUACCCUGGCCAUCAAGUGA [Fam2.1 aminoacylation ribozyme variant] | 1.1 | 0.983 | 1.07 | 1.01 | 0.968 | 1.67
CUACUUCAAACAAACAGUCUG [Fam1A.1 aminoacylation ribozyme variant] | 0.8 | 0.864 | 0.54 | 0.728 | 0.671 | 0.534
AUUACCCUGGCCAUCGAGUGU [Fam2.1 aminoacylation ribozyme variant] | 2.1 | 1.42 | 3.06 | 1.93 | 2.04 | 2.51
AGUACCCUGCUCAUCGAGUGA [Fam2.1 aminoacylation ribozyme variant] | 1.88 | 1.2 | 2.06 | 1.28 | 1.77 | 1.88
AAGUUUGCCAAUAUUCGCAAG [Fam3.1 aminoacylation ribozyme variant] | 3.77 | 1.51 | 1.35 | 1.07 | 1.07 | 1.45
AUUCACCUAGGUCAUGGAGUG [Fam2.2 aminoacylation ribozyme variant] | 7.91 | 2.31 | 3.29 | 2.49 | 4.09 | 3.68
